Reference: US5776725, “Recombinant production of glucagon receptors” (ZymoGenetics, Inc., dated 1998)

Assays:
[1] = target: human glucagon receptor encoded by plasmid pLJ6' (human); assay: in situ 125I-glucagon binding with emulsion autoradiography on pLJ6'-transfected COS 7 cells
[2] = target: rat glucagon receptor encoded by plasmid pLJ4 (rat)
[3] = target: rat glucagon receptor encoded by plasmid pLJ4 (rat); remark: listed apart in the source
[4] = target: rat glucagon receptor encoded by plasmid pLJ4 (rat); remark: listed apart in the source
[5] = target: rat glucagon receptor encoded by plasmid pLJ4 (rat); remark: listed apart in the source
[6] = target: glucagon receptors of rat liver membrane preparations (rat) (UniProt P30082); assay: Scatchard analysis of 125I-glucagon binding in competition with unlabeled glucagon, rat liver membranes
[7] = target: rat glucagon receptor encoded by plasmid pLJ4 (rat); assay: Scatchard analysis of 125I-glucagon binding in competition with unlabeled glucagon, membranes of pLJ4 BHK transfectants
[8] = target: T1, bovine parathyroid hormone (PTH) (Sigma) (bovine, UniProt P01268); assay: competition with 125I-glucagon, membranes of pLJ4 BHK transfectants
T1 sequence (peptide): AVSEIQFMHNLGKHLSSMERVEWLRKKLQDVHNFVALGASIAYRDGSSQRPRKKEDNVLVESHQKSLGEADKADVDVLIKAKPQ
Procedure: The binding reaction was initiated by the addition of 20 µl of a membrane preparation to the reaction tubes. The reactions were incubated for 30 minutes at 30° C. The membranes were pelleted by centrifugation in a microfuge at high speed for 10 minutes at 4° C. The supernatants from each sample were aspirated, and the pellets were counted.

125I-glucagon (Amersham receptor grade) (ligand)
percent of transfected cells that bound glucagon [1]: > 50%

glucagon (ligand)
cAMP levels (Amersham SPA kit) [2]: 5 fold | fold induction of luciferase (CRE-luciferase) [3]: 6 to 10 fold | ED50 of cAMP induction [4]: 0.25 nM | induction of cAMP levels (scintillation proximity radioimmunoassay) [4]: 140 fold | intracellular calcium concentration (fura-2 photoimaging) [5]: 400 nM | Kd [6]: 49 nM | Kd [7]: 50 nM

B1: rat glucagon receptor encoded by plasmid pLJ4 (receptor)
chain: AQVMDFLFEKWKLYSDQCHHNLSLLPPPTELVCNRTFDKYSCWPDTPPNTTANISCPWYLPWYHKVQHRLVFKRCGPDGQWVRGPRGQSWRDASQCQMDDDEIEVQKGVAKMYSSYQVMYTVGYSLSLGALLLALVILLGLRKLHCTRNYIHGNLFASFVLKAGSVLVIDWLLKTRYSQKIGDDLSVSVWLSDGAVAGCRVATVIMQYGIIANYCWLLVEGVYLYSLLSITTFSEKSFFSLYLCIGWGSPLLFVIPWVVVKCLFENVQCWTSNDNMGFWWILRIPVLLAILINFFIFVRIIHLLVAKLRAHQMHYADYKFRLARSTLTLIPLLGVHEVVFAFVTDEHAQGTLRSTKLFFDLFFSSFQGLLVAVLYCFLNKEVQAELLRRWRRWQEGKALQEERMASSHGSHMAPAGTCHGDPCEKLQLMSAGSSSGTGCEPSAKTSLASSLPRLADSPT
binding result [8]: no binding (tested: 1 µM)
